pKd: −log10 of the molar value.
Columns and labels:
HLA-A*02:01 [1] = test: IEDB peptide-MHC binding, purified MHC/competitive/fluorescence; filed as Kd, often an IC50 or EC50 that approximates it; ≥ and ≤ were set here for values at or beyond the usual limits of such assays
HLA-A*68:02 = test: IEDB peptide-MHC binding, purified MHC/direct/fluorescence; filed as Kd, often an IC50 or EC50 that approximates it; ≥ and ≤ were set here for values at or beyond the usual limits of such assays; conditions: source organism: Camelpox virus M-96
HLA-B*08:02 = test: as above
HLA-A*01:01 [2] = test: as above
HLA-B*08:01 = test: as above
HLA-B*27:05 = test: as above
HLA-B*15:09 = test: as above
HLA-B*44:02 = test: as above
HLA-B*39:01 [3] = test: as above
HLA-A*11:01 = test: as above
HLA-B*40:01 = test: as above
HLA-B*15:17 = test: as above; conditions: source organism: Camelpox virus M-96
HLA-A*69:01 [4] = test: as above
HLA-B*58:01 [5] = test: as above
HLA-A*26:01 [6] = test: as above
HLA-A*31:01 = test: as above
HLA-B*57:01 [7] = test: as above
HLA-B*48:01 = test: as above
HLA-B*18:01 [8] = test: as above
HLA-B*07:02 = test: as above
HLA-C*05:01 = test: as above
HLA-C*03:03 = test: as above
HLA-A*02:01 [9] = test: as above
HLA-B*15:01 = test: as above
HLA-A*03:01 [10] = test: as above
HLA-B*46:01 [11] = test: as above
HLA-A*29:02 [12] = test: as above; conditions: source organism: West Nile virus
HLA-A*03:01 [13] = test: IEDB peptide-MHC binding, purified MHC/competitive/fluorescence; filed as Kd, often an IC50 or EC50 that approximates it; ≥ and ≤ were set here for values at or beyond the usual limits of such assays
HLA-A*01:01 [14] = test: as above
HLA-B*58:01 [15] = test: as above
HLA-B*39:01 [16] = test: as above
HLA-A*02:11 = test: as above
HLA-A*02:03 = test: as above
HLA-A*02:19 = test: as above
HLA-A*69:01 [17] = test: as above; conditions: source organism: Human immunodeficiency virus 1
HLA-A*02:12 = test: as above; conditions: source organism: Vibrio parahaemolyticus AQ3810
HLA-B*46:01 [18] = test: as above
HLA-B*27:03 = test: as above
HLA-A*26:01 [19] = test: as above
HLA-B*57:01 [20] = test: as above
HLA-B*18:01 [21] = test: as above
HLA-A*29:02 [22] = test: as above; conditions: source organism: Entamoeba histolytica HM-1:IMSS
[23] = source organism: Camelpox virus M-96
[24] = source organism: West Nile virus
[25] = source organism: West Nile virus strain PTRoxo
[26] = source organism: Yersinia pestis Nepal516
[27] = source organism: Bacillus thuringiensis str. Al Hakam
[28] = source organism: Human immunodeficiency virus 1
[29] = source organism: Vibrio parahaemolyticus AQ3810
[30] = source organism: Entamoeba histolytica HM-1:IMSS
[31] = source organism: Burkholderia mallei
[32] = source organism: Burkholderia mallei ATCC 23344
[33] = source organism: Salmonella enterica subsp. enterica serovar Typhi

For KELENEYYF, the pKd (HLA-A*02:01 [1]; source organism: Vaccinia virus WR) was no more than 4.70, the pKd (HLA-A*68:02) was no more than 4.70 and the pKd (HLA-B*08:02; source organism: Variola virus) was no more than 4.70. It also gave a pKd (HLA-A*01:01 [2]; [23]) of no more than 4.70, a pKd (HLA-B*08:01; source organism: Variola virus) of no more than 4.70 and a pKd (HLA-B*27:05; [23]) of no more than 4.70. It also gave a pKd (HLA-B*15:09; source organism: Variola virus) of no more than 4.70, a pKd (HLA-B*44:02; [23]) of no more than 4.70 and a pKd (HLA-B*39:01 [3]; source organism: Variola virus) of no more than 4.70. It also gave a pKd (HLA-A*11:01; [23]) of no more than 4.70, a pKd (HLA-B*40:01; [23]) of 7.74 and a pKd (HLA-B*15:17) of no more than 4.70. For the same sequence, the pKd (HLA-A*69:01 [4]; [23]) was no more than 4.70, the pKd (HLA-B*58:01 [5]; [23]) was no more than 4.70 and the pKd (HLA-A*26:01 [6]; source organism: Variola virus) was no more than 4.70. It also gave a pKd (HLA-A*31:01; [23]) of no more than 4.70, a pKd (HLA-B*57:01 [7]; [23]) of no more than 4.70 and a pKd (HLA-B*48:01; [23]) of no more than 4.70. For the same sequence, the pKd (HLA-B*18:01 [8]; [23]) was 7.70 and the pKd (HLA-B*07:02; [23]) was no more than 4.70.

ILDTGTIQL was tested, and the pKd (HLA-C*05:01; source organism: Homo sapiens) was 7.72 and the pKd (HLA-C*03:03; source organism: Homo sapiens) was 5.90.

Work on YLVDCGAEL yielded a pKd (HLA-C*03:03; source organism: Mycobacterium tuberculosis str. Haarlem) of no less than 9.00.

TEGEGRVIL showed a pKd (HLA-A*02:01 [9]; [24]) of no more than 4.70, a pKd (HLA-B*15:01; [24]) of no more than 4.70 and a pKd (HLA-A*03:01 [10]; [24]) of no more than 4.70. The pKd (HLA-A*01:01 [2]; [24]) was no more than 4.70, the pKd (HLA-B*27:05; [24]) was no more than 4.70 and the pKd (HLA-B*15:09; [25]) was no more than 4.70. The pKd (HLA-B*44:02; [24]) was no more than 4.70, the pKd (HLA-B*46:01 [11]; [24]) was no more than 4.70 and the pKd (HLA-B*39:01 [3]; [24]) was no more than 4.70. The pKd (HLA-A*11:01; [24]) was no more than 4.70, the pKd (HLA-B*40:01; [24]) was 7.34 and the pKd (HLA-A*69:01 [4]; [24]) was no more than 4.70. For the same sequence, the pKd (HLA-B*58:01 [5]; [24]) was no more than 4.70, the pKd (HLA-A*31:01; [24]) was no more than 4.70 and the pKd (HLA-B*57:01 [7]; [24]) was no more than 4.70. For the same sequence, the pKd (HLA-B*48:01; [24]) was no more than 4.70, the pKd (HLA-B*18:01 [8]; [24]) was 5.99 and the pKd (HLA-A*29:02 [12]) was no more than 4.70. The pKd (HLA-B*07:02; [24]) was no more than 4.70.

In the case of STIVWSSRY, the pKd (HLA-A*03:01 [13]; [26]) was 5.46, the pKd (HLA-A*01:01 [14]; [26]) was 5.85 and the pKd (HLA-B*58:01 [15]; [26]) was 6.77.

YSAWGGYNL was tested, and the pKd (HLA-B*39:01 [16]; [27]) was 6.39 and the pKd (HLA-C*05:01; [27]) was 5.38.

With GLADQLIHI the pKd (HLA-A*02:11; [28]) was 9.70, the pKd (HLA-A*02:01 [1]; [28]) was 7.53 and the pKd (HLA-A*02:03; [28]) was 8.92. For the same sequence, the pKd (HLA-A*02:19; [28]) was 8.02 and the pKd (HLA-A*69:01 [17]) was no more than 4.70.

SSRGYSAIW was tested, and the pKd (HLA-A*03:01 [13]; [29]) was no more than 4.70, the pKd (HLA-A*02:12) was no more than 4.70 and the pKd (HLA-A*02:03; [29]) was no more than 4.70. For the same sequence, the pKd (HLA-B*46:01 [18]; [29]) was no more than 4.70, the pKd (HLA-A*02:19; [29]) was no more than 4.70 and the pKd (HLA-B*39:01 [16]; [29]) was no more than 4.70. It also gave a pKd (HLA-B*27:03; [29]) of no more than 4.70, a pKd (HLA-A*26:01 [19]; [29]) of no more than 4.70 and a pKd (HLA-B*57:01 [20]; [29]) of 7.38. The pKd (HLA-B*18:01 [21]; [29]) was no more than 4.70.

Sequence CLSPVVAGL has a pKd (HLA-A*02:11; [30]) of no less than 10.00, a pKd (HLA-A*03:01 [13]; [30]) of no more than 4.70 and a pKd (HLA-B*46:01 [18]; [30]) of no more than 4.70. It also gave a pKd (HLA-A*02:19; [30]) of 9.10, a pKd (HLA-B*27:03; [30]) of no more than 4.70 and a pKd (HLA-A*26:01 [19]; [30]) of no more than 4.70. The pKd (HLA-B*57:01 [20]; [30]) was no more than 4.70, the pKd (HLA-B*18:01 [21]; [30]) was no more than 4.70 and the pKd (HLA-A*29:02 [22]) was 6.66.

For GHGTVVLEL, the pKd (HLA-B*39:01 [16]; source organism: Murray Valley encephalitis virus) was 8.17, the pKd (HLA-A*02:01 [9]; [24]) was no more than 4.70 and the pKd (HLA-B*15:01; [24]) was no more than 4.70. It also gave a pKd (HLA-A*03:01 [10]; [24]) of no more than 4.70, a pKd (HLA-A*01:01 [2]; [24]) of no more than 4.70 and a pKd (HLA-B*27:05; [24]) of no more than 4.70. It also gave a pKd (HLA-B*15:09; [25]) of 5.34, a pKd (HLA-B*44:02; [24]) of no more than 4.70 and a pKd (HLA-B*46:01 [11]; [24]) of no more than 4.70. The pKd (HLA-B*40:01; [24]) was no more than 4.70, the pKd (HLA-A*69:01 [4]; [24]) was no more than 4.70 and the pKd (HLA-B*58:01 [5]; [24]) was no more than 4.70. The pKd (HLA-A*31:01; [24]) was no more than 4.70, the pKd (HLA-B*57:01 [7]; [24]) was no more than 4.70 and the pKd (HLA-B*18:01 [8]; [24]) was no more than 4.70. The pKd (HLA-B*07:02; [24]) was no more than 4.70.

Work on EARGKEKLL yielded a pKd (HLA-A*02:01 [9]; [31]) of no more than 4.70, a pKd (HLA-B*15:01; [31]) of no more than 4.70 and a pKd (HLA-B*08:02; [32]) of no more than 4.70. The pKd (HLA-A*03:01 [10]; [31]) was no more than 4.70, the pKd (HLA-A*01:01 [2]; [31]) was no more than 4.70 and the pKd (HLA-B*08:01; [32]) was 5.23. It also gave a pKd (HLA-B*27:05; [31]) of no more than 4.70, a pKd (HLA-B*15:09; [32]) of no more than 4.70 and a pKd (HLA-B*46:01 [11]; [31]) of no more than 4.70. For the same sequence, the pKd (HLA-A*11:01; [31]) was no more than 4.70, the pKd (HLA-B*40:01; [31]) was no more than 4.70 and the pKd (HLA-B*58:01 [5]; [31]) was no more than 4.70. For the same sequence, the pKd (HLA-A*26:01 [6]; [32]) was no more than 4.70 and the pKd (HLA-B*07:02; [31]) was no more than 4.70.

Work on ITSKEVFTY yielded a pKd (HLA-A*03:01 [13]; [33]) of 5.64, a pKd (HLA-A*01:01 [14]; [33]) of 7.47 and a pKd (HLA-B*58:01 [15]; [33]) of 7.59.
